# In patent publication US20100203559A1 (published 2010):
# Where a chain is given by its changes, count along the chain named.
# B1: α-SNAP-25 monoclonal antibody 2E2A6 (antibody, V domains shown)
# VH: QVQLQQSDAELVKPGASVKISCRASGYTFTDHSIHWVKQQPGQGLEWIGYIFPGNGNIEYNDKFKGKATLTADKSSGTAYMQLNSLTSEDSAVYFCKRMGYWGQGTSVTVSS
# VL: DVLMTQTPLTLSVTIGQPASISCKSSQSLLYTNGKTYLTWLFQRPGQSPKRLIYLVSELDSGVPDRFSGSGSGTDFTLEITRVEAEDLGVYYCLQSAHFPFTFGSGTKLEIKR
# B2: α-SNAP-25 monoclonal antibody 3C1A5 (antibody, V domains shown)
# VH: QVKLQESGAELVKPGASVKISCKASGYTFTDHSIHWVKQKPGQGLEWIGYLFPGNGNFEYNEKFKGKATLTADKSSSTVYMYLNSLTSEDSAVYFCKRMGYWGQGTTVTVSS
# VL: B1 VL with L3V, Y31N, F42I, K50Q, E58K, E79K, T81S, A97S
# B3: α-SNAP-25 monoclonal antibody 1D3B8 (antibody, V domains shown)
# VH: QVKLQESGAELVKPGASVKISCKASGYIFTDHALHWVRQKPEQGLEWIGYIFPGNGNIEYNEKFKGKATLTADKSSSTAYMQLNSLTSGDSAMYFCKKMDYWGQGTTVTVSS
# VL: DVLMTQTPLSLPVSLGDQASISCRSSQSIVHSNGNTYLEWYLQKPGQSPKLLIYKVSNRFSGVPDRFSGSGSGTDFTLKISRVEAEDLGVYYCFQGSHVPPTFGAGTKLELKR
# Target: T1, SNAP-25206 uncleaved substrate (PC12 cells) (rat (PC12 cells), UniProt P60881 1-206)
# T1 construct: also called uncleaved SNAP-25206 substrate; uncleaved SNAP-25
# Experiment: cell-based activity assay (Western blot, PC12 cells), ascites 1:100
# T1 sequence (P60881 whole entry): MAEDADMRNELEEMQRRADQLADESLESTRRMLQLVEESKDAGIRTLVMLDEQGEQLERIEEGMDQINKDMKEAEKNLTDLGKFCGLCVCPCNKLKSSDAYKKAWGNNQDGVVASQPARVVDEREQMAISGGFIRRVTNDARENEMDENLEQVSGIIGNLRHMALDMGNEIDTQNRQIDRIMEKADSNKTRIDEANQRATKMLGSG
row,Binder,binding result
1,B1,no binding
2,B2,no binding
3,B3,no binding
